Measured values reported in PMC3791854.

Target: HIV Env on CEM-Env cells (HIV, strain not stated)

In the case of “CD4-CD28-CD3ζ chimeric receptor (from UniProt P01730 26-396)”, the IFNγ in the culture of CEM-Env + CD4-dTc is reported as 838 pg/mL, the IL2 in the culture of CEM-Env + CD4-dTc is reported as 318 pg/mL and the TNFα in the culture of CEM-Env + CD4-dTc is reported as 249 pg/mL.
